± gives the standard deviation of the averaged measurements.
Each sequence was assayed on ATP (assay: switch fluorescence ratio, 500 uM ATP over buffer (Cy3 cluster intensity, sum of 5 cycles each) (fold (ratio)); higher = stronger signal-on switching upon ATP binding; sequences stand for … in TCGTCGGCAGCGTCAGATGTGTATAAGAGACAGTTTTTTTTTTTTTTTTTTTTTTTTT…TC). Conditions: aptamer strand: ATP DNA aptamer (quencher-CACCTGGGGGAGTATTGCGGAGGAAGG + anchor), 100 nM annealed; ATP concentration: 500 uM.
In short: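 Five buffer/ATP imaging cycles were run on Cy3-labelled switching-strand clusters on a modified Illumina MiSeq flow-cell, with NaOH stripping and re-annealing between cycles. In each cycle, clusters annealed to 100 nM quencher-labelled ATP aptamer were imaged in selection buffer, then after 15 min with 500 uM ATP at 22 °C. Per cluster, the fluorescence ratio is summed target-cycle over summed buffer-cycle Cy3 intensity, averaged per switch-domain sequence. Only clusters within 100-1000 RFU were kept.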
CGAGGGCTGA was tested, and the switch fluorescence ratio was 1.02 ± 0.015. For CGAGGGGACG, the switch fluorescence ratio was 1 ± 0.013. CGAGGGGAGT gave a switch fluorescence ratio of 1.006 ± 0.0011. CGAGGGGGGA was tested, and the switch fluorescence ratio was 0.996 ± 0.028. For CGAGGGGTAG, the switch fluorescence ratio was 0.996 ± 0.026. With CGAGGGTAAC the switch fluorescence ratio was 0.983 ± 0.029. CGAGGGTACG gave a switch fluorescence ratio of 1 ± 0.032. CGAGGTTGAC gave a switch fluorescence ratio of 1.0385 ± 0.00054. CGAGTAAACG gave a switch fluorescence ratio of 1.02 ± 0.017. CGAGTAAATG was tested, and the switch fluorescence ratio was 1.01 ± 0.021. Sequence CGAGTACTGG has a switch fluorescence ratio of 1.03 ± 0.016. CGAGTATTGG showed a switch fluorescence ratio of 0.974 ± 0.018. With CGAGTCCCCT the switch fluorescence ratio was 1.04 ± 0.033. CGAGTGGGGG gave a switch fluorescence ratio of 0.987 ± 0.029. Work on CGAGTGTGTG yielded a switch fluorescence ratio of 0.97 ± 0.024. Work on CGAGTTACGG yielded a switch fluorescence ratio of 1.01 ± 0.019. CGAGTTAGGC showed a switch fluorescence ratio of 1.03 ± 0.063. For CGAGTTGATC, the switch fluorescence ratio was 0.973 ± 0.028. In the case of CGAGTTTG, the switch fluorescence ratio is reported as 0.98 ± 0.056. Work on CGAGTTTTTG yielded a switch fluorescence ratio of 0.979 ± 0.014. CGATAAATTA was tested, and the switch fluorescence ratio was 0.9971 ± 0.0044. CGATAATGAA was tested, and the switch fluorescence ratio was 1 ± 0.029. CGATACGGTG gave a switch fluorescence ratio of 1.07 ± 0.035. CGATACGTTG showed a switch fluorescence ratio of 0.99 ± 0.011. For CGATAGATGT, the switch fluorescence ratio was 1 ± 0.024. CGATAGTATT gave a switch fluorescence ratio of 0.9854 ± 0.0063. Sequence CGATATAGGA has a switch fluorescence ratio of 0.992 ± 0.011. With CGATATCGAG the switch fluorescence ratio was 0.98 ± 0.051. In the case of CGATATCGTG, the switch fluorescence ratio is reported as 1 ± 0.019. For CGATATGATG, the switch fluorescence ratio was 1.01 ± 0.062. Sequence CGATATGGGG has a switch fluorescence ratio of 1.01 ± 0.057. For CGATATGGGT, the switch fluorescence ratio was 0.9801 ± 0.0026. For CGATATTGCA, the switch fluorescence ratio was 1.02 ± 0.025. CGATCCAGTG was tested, and the switch fluorescence ratio was 1.39 ± 0.061. With CGATGAAGGC the switch fluorescence ratio was 1.07 ± 0.031. For CGATGATATT, the switch fluorescence ratio was 1.02 ± 0.053. Sequence CGATGATCGG has a switch fluorescence ratio of 1 ± 0.016. Sequence CGATGCACGG has a switch fluorescence ratio of 1.106 ± 0.0049. With CGATGCATGG the switch fluorescence ratio was 1.71 ± 0.19. CGATGCTACA was tested, and the switch fluorescence ratio was 1.06 ± 0.048. For CGATGGGATA, the switch fluorescence ratio was 1.03 ± 0.02. Work on CGATGGGCCT yielded a switch fluorescence ratio of 1.01 ± 0.024. Sequence CGATGGGTCG has a switch fluorescence ratio of 1 ± 0.066. CGATGGTGAG showed a switch fluorescence ratio of 1 ± 0.047. In the case of CGATGTGAGA, the switch fluorescence ratio is reported as 1.04 ± 0.022. With CGATGTGCTT the switch fluorescence ratio was 1.01 ± 0.024. With CGATGTGTGC the switch fluorescence ratio was 1.17 ± 0.0054. CGATGTGTGT gave a switch fluorescence ratio of 0.991 ± 0.035. CGATTAAGAT showed a switch fluorescence ratio of 1.02 ± 0.021. CGATTAAGGC showed a switch fluorescence ratio of 1.003 ± 0.0026. Sequence CGATTACTCC has a switch fluorescence ratio of 2.82 ± 0.089. CGATTATTAT gave a switch fluorescence ratio of 0.975 ± 0.031. CGATTCGGGG showed a switch fluorescence ratio of 1.01 ± 0.03. In the case of CGATTCGGTA, the switch fluorescence ratio is reported as 1.01 ± 0.042. CGATTCTTTT was tested, and the switch fluorescence ratio was 0.979 ± 0.01. CGATTGCTAG gave a switch fluorescence ratio of 1.02 ± 0.058. In the case of CGATTGGGGT, the switch fluorescence ratio is reported as 1.02 ± 0.034. Sequence CGATTTCGTT has a switch fluorescence ratio of 0.984 ± 0.013. For CGATTTGCCT, the switch fluorescence ratio was 0.9806 ± 0.006. In the case of CGATTTGGGC, the switch fluorescence ratio is reported as 0.982 ± 0.021. With CGATTTTGA the switch fluorescence ratio was 0.969 ± 0.043. Sequence CGATTTTGGA has a switch fluorescence ratio of 0.9941 ± 0.0078. Sequence CGCAAAAAGT has a switch fluorescence ratio of 1.0219 ± 0.00086. CGCAAAGAAG was tested, and the switch fluorescence ratio was 1.08 ± 0.02. CGCACCATGC was tested, and the switch fluorescence ratio was 2.41 ± 0.073. For CGCACCCTTT, the switch fluorescence ratio was 1.093 ± 0.0056. Work on CGCACGGTAG yielded a switch fluorescence ratio of 1.05 ± 0.032. For CGCACTGTGG, the switch fluorescence ratio was 1.028 ± 0.0031. In the case of CGCAGAGGCT, the switch fluorescence ratio is reported as 1.06 ± 0.044. Work on CGCAGAGTGG yielded a switch fluorescence ratio of 1.01 ± 0.018. Work on CGCAGGAAAG yielded a switch fluorescence ratio of 0.973 ± 0.0023. For CGCAGGATTT, the switch fluorescence ratio was 1.09 ± 0.19. In the case of CGCAGGCCTC, the switch fluorescence ratio is reported as 1.47 ± 0.062. Sequence CGCAGGGTGG has a switch fluorescence ratio of 1.05 ± 0.022. Sequence CGCAGGTGGG has a switch fluorescence ratio of 1.08 ± 0.042. CGCAGGTTTG showed a switch fluorescence ratio of 1.03 ± 0.011. For CGCAGTTCTT, the switch fluorescence ratio was 1.198 ± 0.0086. With CGCATTTTTT the switch fluorescence ratio was 1.13 ± 0.12. In the case of CGCCAAATTT, the switch fluorescence ratio is reported as 1.07 ± 0.1. Work on CGCCACTGTG yielded a switch fluorescence ratio of 1.06 ± 0.044. For CGCCCCTGTA, the switch fluorescence ratio was 1.04 ± 0.035. With CGCCGGGTTG the switch fluorescence ratio was 0.984 ± 0.033. Work on CGCCGTGTCA yielded a switch fluorescence ratio of 1.02 ± 0.068. CGCCTGTTAG showed a switch fluorescence ratio of 0.99 ± 0.016. CGCGAAAGAA gave a switch fluorescence ratio of 0.9682 ± 0.0033. For CGCGAACATG, the switch fluorescence ratio was 0.984 ± 0.049. CGCGAAGGCT gave a switch fluorescence ratio of 1.04 ± 0.015. In the case of CGCGAATATA, the switch fluorescence ratio is reported as 1 ± 0.019. In the case of CGCGAATTTG, the switch fluorescence ratio is reported as 1.02 ± 0.021. Work on CGCGACTAAA yielded a switch fluorescence ratio of 0.9951 ± 0.0066. With CGCGAGGCGT the switch fluorescence ratio was 1.07 ± 0.12. In the case of CGCGATAGTA, the switch fluorescence ratio is reported as 1.27 ± 0.026. Work on CGCGATGGGT yielded a switch fluorescence ratio of 1.08 ± 0.033. With CGCGATGTAC the switch fluorescence ratio was 3.82 ± 0.15. Work on CGCGCAGGGA yielded a switch fluorescence ratio of 1.03 ± 0.013. CGCGCGGTTT showed a switch fluorescence ratio of 1.02 ± 0.041. With CGCGCTTTTG the switch fluorescence ratio was 1.01 ± 0.017. Work on CGCGGACGGT yielded a switch fluorescence ratio of 1.05 ± 0.052. Work on CGCGGATTGG yielded a switch fluorescence ratio of 0.9903 ± 0.0094. For CGCGGCAAGG, the switch fluorescence ratio was 1.32 ± 0.31. With CGCGGGAGGG the switch fluorescence ratio was 1.04 ± 0.022. In the case of CGCGGGGGGA, the switch fluorescence ratio is reported as 1.03 ± 0.06. In the case of CGCGGGGGTG, the switch fluorescence ratio is reported as 1.03 ± 0.024. With CGCGGGGTCC the switch fluorescence ratio was 1.05 ± 0.048. CGCGGGTAAC showed a switch fluorescence ratio of 1.036 ± 0.0077. CGCGGGTTGA was tested, and the switch fluorescence ratio was 1.053 ± 0.0094. In the case of CGCGGTACGG, the switch fluorescence ratio is reported as 1.47 ± 0.39. CGCGGTTCTG gave a switch fluorescence ratio of 1.01 ± 0.029. CGCGTAGAC showed a switch fluorescence ratio of 1.66 ± 0.14. In the case of CGCGTATTGT, the switch fluorescence ratio is reported as 0.999 ± 0.016. Work on CGCGTGGCGG yielded a switch fluorescence ratio of 0.999 ± 0.024. In the case of CGCGTTGGCA, the switch fluorescence ratio is reported as 1.04 ± 0.028. CGCTCACGGT was tested, and the switch fluorescence ratio was 1.066 ± 0.0026. For CGCTCGGGTT, the switch fluorescence ratio was 1.003 ± 0.0025. CGCTCGTTGT gave a switch fluorescence ratio of 0.9559 ± 0.0033. For CGCTGACCTT, the switch fluorescence ratio was 1.2 ± 0.037. Work on CGCTGGGGGA yielded a switch fluorescence ratio of 1.055 ± 0.0022. Work on CGCTGGGGTT yielded a switch fluorescence ratio of 0.9962 ± 0.0047. In the case of CGCTGTGAAG, the switch fluorescence ratio is reported as 1.02 ± 0.012. For CGCTGTGATG, the switch fluorescence ratio was 1.013 ± 0.0053. Work on CGCTGTTTTT yielded a switch fluorescence ratio of 1.02 ± 0.024. In the case of CGCTTATCCT, the switch fluorescence ratio is reported as 1.1 ± 0.038. For CGCTTCTAGG, the switch fluorescence ratio was 1.04 ± 0.024. Sequence CGCTTGAGA has a switch fluorescence ratio of 1.04 ± 0.026. CGCTTGGCTG was tested, and the switch fluorescence ratio was 0.981 ± 0.051. CGCTTGGTAC showed a switch fluorescence ratio of 3.39 ± 0.079. Work on CGCTTTAATA yielded a switch fluorescence ratio of 1.07 ± 0.019. In the case of CGGAAAATTT, the switch fluorescence ratio is reported as 1.01 ± 0.075. Sequence CGGAAAGTGT has a switch fluorescence ratio of 0.996 ± 0.024. CGGAAGCATG showed a switch fluorescence ratio of 1.13 ± 0.047. CGGAAGCGTG was tested, and the switch fluorescence ratio was 0.984 ± 0.016. In the case of CGGAAGCTCT, the switch fluorescence ratio is reported as 1.036 ± 0.0028. CGGAAGGGCC gave a switch fluorescence ratio of 0.995 ± 0.03. CGGAAGTGCG gave a switch fluorescence ratio of 1.0061 ± 6.8e-05. CGGAATGGTT showed a switch fluorescence ratio of 1.04 ± 0.036. With CGGACCGGGG the switch fluorescence ratio was 0.996 ± 0.041. In the case of CGGACCTAGT, the switch fluorescence ratio is reported as 0.9689 ± 0.0042. CGGACGGCTC gave a switch fluorescence ratio of 1.093 ± 0.01. Sequence CGGACTGGTT has a switch fluorescence ratio of 1.005 ± 0.0057. Work on CGGACTTATT yielded a switch fluorescence ratio of 0.9686 ± 0.0054. In the case of CGGAGAATAG, the switch fluorescence ratio is reported as 1.234 ± 0.012. With CGGAGACCGT the switch fluorescence ratio was 1 ± 0.022. CGGAGACGTG showed a switch fluorescence ratio of 1 ± 0.025. Sequence CGGAGAGGGT has a switch fluorescence ratio of 1 ± 0.029. Sequence CGGAGAGTAG has a switch fluorescence ratio of 1.03 ± 0.018. CGGAGGAATT showed a switch fluorescence ratio of 1.2 ± 0.11. With CGGAGGATGG the switch fluorescence ratio was 0.9867 ± 0.0084. CGGAGGCAAG gave a switch fluorescence ratio of 1.14 ± 0.045. For CGGAGGGGAT, the switch fluorescence ratio was 1.062 ± 0.005. Sequence CGGAGGGGCC has a switch fluorescence ratio of 1.02 ± 0.033. CGGAGTCGGG showed a switch fluorescence ratio of 1.04 ± 0.052. In the case of CGGAGTTGCG, the switch fluorescence ratio is reported as 0.98 ± 0.013. Work on CGGATAATTG yielded a switch fluorescence ratio of 0.9886 ± 0.0054.

— the supplement of paper PMC10126150
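Further: ATP exposure 15 min at 22 °C before imaging.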
